From publication PMC4135234 come the findings set out here.

Where two headings read alike, the source gives them in different places.

Data set [1] deals with GST-FLAG-p53 (human, UniProt P04637 1-393). Put plainly: fluorescence polarization.
The target of data set [2] is T1, GST-FLAG-MSI2 (human, UniProt Q96DH6 1-328). Put plainly: competition.
Data set [3] deals with T1, GST-FLAG-MSI2. Put plainly: competition. The source holds these as a separate data set.
The target of data set [4] is GST-FLAG-MSI1 (human, UniProt O43347 1-362). Briefly: competition.
Data set [5] addresses T2, GST-FLAG-LIN28A (human, UniProt Q9H9Z2 1-209).
T2 sequence: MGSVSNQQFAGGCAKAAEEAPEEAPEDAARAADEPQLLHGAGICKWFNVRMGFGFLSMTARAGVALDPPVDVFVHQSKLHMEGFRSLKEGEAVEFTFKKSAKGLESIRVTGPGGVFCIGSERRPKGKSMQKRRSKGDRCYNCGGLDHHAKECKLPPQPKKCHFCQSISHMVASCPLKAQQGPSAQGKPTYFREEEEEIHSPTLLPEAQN
Briefly: competition.

T1 sequence (Q96DH6 whole entry): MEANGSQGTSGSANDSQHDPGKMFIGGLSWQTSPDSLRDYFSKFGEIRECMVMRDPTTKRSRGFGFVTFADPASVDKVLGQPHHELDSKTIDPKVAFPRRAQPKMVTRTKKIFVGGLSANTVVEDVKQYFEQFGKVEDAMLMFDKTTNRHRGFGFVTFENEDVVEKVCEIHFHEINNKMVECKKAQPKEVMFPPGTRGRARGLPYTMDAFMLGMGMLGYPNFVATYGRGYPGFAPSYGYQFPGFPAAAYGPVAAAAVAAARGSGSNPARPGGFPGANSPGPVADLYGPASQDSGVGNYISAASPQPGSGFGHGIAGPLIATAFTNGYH
Sequence of GST-FLAG-p53 (P04637 whole entry): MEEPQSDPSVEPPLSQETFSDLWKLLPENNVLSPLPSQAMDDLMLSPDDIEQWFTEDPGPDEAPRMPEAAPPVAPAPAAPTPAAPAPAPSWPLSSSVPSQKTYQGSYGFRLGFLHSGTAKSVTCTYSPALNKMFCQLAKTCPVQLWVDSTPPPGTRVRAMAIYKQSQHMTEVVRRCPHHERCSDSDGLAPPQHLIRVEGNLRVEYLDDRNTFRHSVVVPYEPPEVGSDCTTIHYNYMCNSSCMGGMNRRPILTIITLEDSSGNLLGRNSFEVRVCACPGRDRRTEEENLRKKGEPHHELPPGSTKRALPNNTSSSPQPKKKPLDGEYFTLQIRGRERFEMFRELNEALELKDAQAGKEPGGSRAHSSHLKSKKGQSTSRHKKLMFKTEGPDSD
Sequence of GST-FLAG-MSI1 (O43347 whole entry): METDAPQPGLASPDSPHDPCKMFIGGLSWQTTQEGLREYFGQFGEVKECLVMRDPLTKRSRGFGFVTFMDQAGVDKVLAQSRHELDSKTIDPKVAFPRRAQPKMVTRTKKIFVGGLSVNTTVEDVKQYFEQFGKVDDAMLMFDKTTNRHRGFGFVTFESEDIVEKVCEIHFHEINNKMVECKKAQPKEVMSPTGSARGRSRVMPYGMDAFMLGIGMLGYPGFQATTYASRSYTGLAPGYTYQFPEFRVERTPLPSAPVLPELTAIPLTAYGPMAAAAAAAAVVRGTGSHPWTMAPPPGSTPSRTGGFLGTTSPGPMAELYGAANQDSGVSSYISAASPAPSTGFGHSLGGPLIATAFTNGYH

For the molecule GUAGUAGU (ssRNA, 5' C9 spacer) [MSI FP oligo (Cy3-C9-Oligo #5)], in data set [1], the binding result was “no binding”.

With GUAGUAGU (ssRNA) [MSI Oligo #5 (unlabeled MSI FP oligo)], the IC50 (commonly the concentration at which inhibition is half-maximal) in data set [2] was determined as 1.3 ± 0.2 µM; in data set [3], 4.6 µM; in data set [4], 5.6 µM; in data set [5], 0.5 µM.
